Laboratory results from patent US20260285996 (published 2026).
One block for each binder: values may come before it.

Columns and labels:
human BLyS 60-mer = human BLyS 60-mer (human, UniProt Q9Y275); assay: SPR
human BLyS (BAFF) trimer [1] = target: T1, human BLyS (BAFF) trimer (human, UniProt Q9Y275); assay: competition, BCMA:Fc
human FcRn = human FcRn (human, UniProt P55899); assay: SPR, pH 6.0
cyno FcRn = target: T2, cyno FcRn (cynomolgus monkey); assay: SPR, pH 6.0
T2 chain 1: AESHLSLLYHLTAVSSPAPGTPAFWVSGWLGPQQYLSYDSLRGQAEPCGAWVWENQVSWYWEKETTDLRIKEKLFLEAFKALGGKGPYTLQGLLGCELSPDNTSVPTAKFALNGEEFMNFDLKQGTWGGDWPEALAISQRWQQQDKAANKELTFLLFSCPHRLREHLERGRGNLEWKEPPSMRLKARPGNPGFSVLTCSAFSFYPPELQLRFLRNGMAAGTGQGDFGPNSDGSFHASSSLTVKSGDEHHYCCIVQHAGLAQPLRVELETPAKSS
T2 chain 2: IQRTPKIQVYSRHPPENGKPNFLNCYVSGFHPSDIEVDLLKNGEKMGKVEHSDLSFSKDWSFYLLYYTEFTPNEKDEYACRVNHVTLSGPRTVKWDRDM

human BLyS (BAFF) trimer [2] = target: T1, human BLyS (BAFF) trimer; assay: competition, TACI:Fc
human BLyS (BAFF) trimer [3] = target: T1, human BLyS (BAFF) trimer; assay: competition, BAFF-R:Fc
human BLyS (BAFF) trimer [4] = target: T1, human BLyS (BAFF) trimer; assay: competition, BAFFR on CHO-K1 cells

- binding result (human BLyS 60-mer): no binding
- IC50 (human BLyS (BAFF) trimer [1]): 0.126 nM
- Kd (human FcRn): 753 nM
- Kd (cyno FcRn): 760 nM
- IC50 (human BLyS (BAFF) trimer [2]): 0.2 nM
- IC50 (human BLyS (BAFF) trimer [3]): 0.1 nM
- IC50 (human BLyS (BAFF) trimer [4]): 0.0302 nM
B1: Belimumab (antibody)
chain 1: not shown
chain 2: SSELTQDPAVSVALGQTVRVTCQGDSLRSYYASWYQQKPGQAPVLVIYGKNNRPSGIPDRFSGSSSGNTASLTITGAQAEDEADYYCSSRDSSGNHWVFGGGTELTVLGQPKAAPSVTLFPPSSEELQANKATLVCLISDFYPGAVTVAWKADSSPVKAGVETTTPSKQSNNKYAASSYLSLTPEQWKSHRSYSCQVTHEGSTVEKTVAPTECS

- binding result (human BLyS 60-mer): no binding
B2: Ab363A (antibody, V domains shown)
VH: QVQLQQSGAEVKKPGSSVRVSCKASGGTFNNDAINWVRQAPGQGLEWMGGIFPMFGTAKYSQNFQGRVAITADESTGTASMELSSLRSEDTAVYYCARSRDPLLYPHHALSPWGRGTMVTVSS
VL: SSELTQDPAVSVALGQTVRVTCQGDSLRYYYASWYQQKPGQAPVLVIYGKNNRPSGIPDRFSGSSSGNTASLTITGAQAEDEADYYCSSRDSSGNNWVFGGGTELTVL
